Source: PMC2996326, “LaeA Control of Velvet Family Regulatory Proteins for Light-Dependent Development and Fungal Cell-Type Specificity” (PLoS Genetics, 2010)

Target: the molecule itself
Assay: not stated; VelB heterologously expressed in Escherichia coli; data not shown

B1: VelB expressed in Escherichia coli (natural protein, Aspergillus nidulans, UniProt C8VTS4 1-369, looked up)
chain: MYAVEDRAHSGHHPPPLSMDRIPPPSTMYPSSAGPSAMVSPAGQPEPESLSTVHDGRIWSLQVVQQPIRARMCGFGDKDRRPITPPPCIRLIVKDAQTQKEVDINSLDSSFYVVMADLWNADGTHEVNLVKHSATSPSISTAMSSSYPPPPHPTSSDYPASYQTNPYGQPVGQPVGQPVGYAGVGNYYGGSTQLQYQNAYPNPQAQYYQPMYGGMAQPQMPAAQPVTPGPGGMFTRNLIGCLSASAYRLYDTEDKIGVWFVLQDLSVRTEGIFRLKFSFVNVGKSVSDLPQSDIAEVINKGTAPILASTFSEPFQVFSAKKFPGVIESTPLSKVFANQGIKIPIRKDGVKGQGSRGRHSDEDDGLDNEY
notes: VelB of Aspergillus nidulans, heterologously expressed; construct not described; neither the construct, its tags nor its purification are described; source: heterologous expression in Escherichia coli
  stoichiometry N: 2
